Laboratory results reported in patent US20070128672A1 (ST VINCENT S HOSPITAL SYDNEY, published 2007).

B1: Fab clone 163.1 (Fab, V domains shown)
VH: VQLLEQSGAEMKRPGASVTISCQASRQTFSGQYIHWVRQAPGQGLEWMGVINPSGGSANYAPSFQGRLSMSRDASTNTVYMKLSSLTSEDTAVYYCLSQALKYWGQGTLVAVSS
VL: AAELTQSPDSLAVSLGERATINCKSNQSVLYNSNSKNYLAWYQQKPGQPPKLLIYWASTRESGVPDRFSGSGSGTDFTLTITSLQAEDVAVYYCQQYFSSPYTFGQGTKLEIK
notes: myc tag on the C terminus of the heavy chain
B2: Fab clone 163.5 (Fab, V domains shown)
VH: VQLLEQSGAEVKRPGASVTISCQASRQDFSGQYIHWVRQAPGQGFEWMGIINPSGGSANYAPKFKGRLTMSRDSSTDTVYMTLTSLTSEDTAVYYCLLQALKHWGQGTLVAVSS
VL: AAELTQSPDSLAVALGERATINCKSSQSVLYSLNNKNYLAWYQQKPGQPPKLLIHWASTRESGVPDRFSGSGSETDFTLTISSLQAEDVAVYYCQQYYTTPYTFGQGTKLEIK
B3: Fab clone 163.24 (Fab, V domains shown)
VH: VQLLEQSGAEVKRPGASVTISCQASRQNFSGQYIHWVRQAPGQGLEWMGIINPSGGSANYAPRFKGRLSMSRDSSTDTAYLTLTSLTSEDTAVYFCLLQSLKHWGQGTLVAVSS
VL: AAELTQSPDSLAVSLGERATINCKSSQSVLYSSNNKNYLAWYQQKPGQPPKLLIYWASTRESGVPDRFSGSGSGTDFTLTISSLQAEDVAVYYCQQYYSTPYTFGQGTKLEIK
notes: Human IgG1 kappa Fab (MCO1 vector, soluble from E. coli HB2151), myc tag on the C terminus of the heavy chain
B4: Fab clone 163.17 (Fab, V domains shown)
VH: VQLLEQSGAEVKRPGASVTISCRASRQDFSGQYIHWVRQAPGQGFEWMGIINPSGGSANYAPKFKGRLTMSRDSSTETVYMTLTSLTSEDTAVYYCLLQALKHWGQGTLVGPSS
VL: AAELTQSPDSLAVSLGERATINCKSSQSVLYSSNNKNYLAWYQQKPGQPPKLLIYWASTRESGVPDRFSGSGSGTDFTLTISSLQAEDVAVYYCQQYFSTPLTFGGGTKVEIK
notes: as for B3

What follows are binders tested against tetanus toxoid (UniProt P04958 2-1315) (assay: ELISA, crude Fab supernatant, detected with 9E10).
Sequence of tetanus toxoid (P04958 2-457 limits assumed, chain 1 of 2): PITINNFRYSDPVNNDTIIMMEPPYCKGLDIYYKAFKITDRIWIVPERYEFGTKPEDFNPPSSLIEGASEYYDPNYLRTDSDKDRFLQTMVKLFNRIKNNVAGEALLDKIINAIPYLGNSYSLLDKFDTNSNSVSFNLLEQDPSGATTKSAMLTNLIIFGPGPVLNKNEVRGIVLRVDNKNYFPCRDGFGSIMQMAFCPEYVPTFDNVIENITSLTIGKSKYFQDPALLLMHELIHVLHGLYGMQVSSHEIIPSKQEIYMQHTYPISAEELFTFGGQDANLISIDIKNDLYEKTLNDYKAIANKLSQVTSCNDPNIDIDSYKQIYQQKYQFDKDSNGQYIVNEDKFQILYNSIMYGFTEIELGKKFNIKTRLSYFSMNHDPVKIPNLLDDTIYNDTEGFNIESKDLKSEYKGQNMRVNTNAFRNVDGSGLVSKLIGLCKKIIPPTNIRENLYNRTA
Sequence of tetanus toxoid (P04958 458-1315 limits assumed, chain 2 of 2): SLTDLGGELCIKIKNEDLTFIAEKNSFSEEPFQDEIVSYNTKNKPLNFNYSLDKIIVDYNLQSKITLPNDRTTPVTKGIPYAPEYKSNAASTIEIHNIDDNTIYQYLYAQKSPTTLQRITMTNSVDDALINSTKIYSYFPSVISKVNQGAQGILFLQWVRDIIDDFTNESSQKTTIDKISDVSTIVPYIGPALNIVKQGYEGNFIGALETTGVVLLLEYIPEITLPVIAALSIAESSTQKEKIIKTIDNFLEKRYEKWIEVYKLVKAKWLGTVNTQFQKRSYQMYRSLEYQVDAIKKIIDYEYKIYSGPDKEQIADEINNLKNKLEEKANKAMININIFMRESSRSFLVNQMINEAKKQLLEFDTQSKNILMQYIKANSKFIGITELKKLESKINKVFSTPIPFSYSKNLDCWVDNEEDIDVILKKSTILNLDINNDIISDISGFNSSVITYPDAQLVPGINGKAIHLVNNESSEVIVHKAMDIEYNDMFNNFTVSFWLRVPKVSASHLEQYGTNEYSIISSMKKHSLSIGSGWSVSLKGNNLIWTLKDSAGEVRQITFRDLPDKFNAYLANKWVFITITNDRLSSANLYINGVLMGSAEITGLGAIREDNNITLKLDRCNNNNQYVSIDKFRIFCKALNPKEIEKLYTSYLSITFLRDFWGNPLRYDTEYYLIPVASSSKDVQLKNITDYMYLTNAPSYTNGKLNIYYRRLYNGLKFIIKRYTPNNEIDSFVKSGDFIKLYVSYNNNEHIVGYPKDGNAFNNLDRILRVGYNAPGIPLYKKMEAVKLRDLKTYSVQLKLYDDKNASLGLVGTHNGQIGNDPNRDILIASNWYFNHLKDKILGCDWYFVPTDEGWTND
B1: no binding (tested: antigen coated at 1 µg/ml).
B2: no binding (tested: antigen coated at 1 µg/ml).
B3: no binding (tested: antigen coated at 1 µg/ml).
B4: no binding (tested: antigen coated at 1 µg/ml).
